Measurements taken from paper PMC5794975, “Mapping the interaction site and effect of the Siglec-9 inflammatory biomarker on human primary amine oxidase” (Scientific Reports, 2018).
Bridges are numbered along the chain shown (N, C = ends). Where no end group is shown, it is not given here.

Target: T1, Human primary amine oxidase (hAOC3), recombinant (human, UniProt Q16853 1-763, topaquinone (TPQ; 2,4,5-trihydroxyphenylalanine quinone, a post-translationally modified tyrosine); N-glycans at Asn137, Asn232, Asn294, Asn592, Asn618, Asn666)
T1 sequence (looked up): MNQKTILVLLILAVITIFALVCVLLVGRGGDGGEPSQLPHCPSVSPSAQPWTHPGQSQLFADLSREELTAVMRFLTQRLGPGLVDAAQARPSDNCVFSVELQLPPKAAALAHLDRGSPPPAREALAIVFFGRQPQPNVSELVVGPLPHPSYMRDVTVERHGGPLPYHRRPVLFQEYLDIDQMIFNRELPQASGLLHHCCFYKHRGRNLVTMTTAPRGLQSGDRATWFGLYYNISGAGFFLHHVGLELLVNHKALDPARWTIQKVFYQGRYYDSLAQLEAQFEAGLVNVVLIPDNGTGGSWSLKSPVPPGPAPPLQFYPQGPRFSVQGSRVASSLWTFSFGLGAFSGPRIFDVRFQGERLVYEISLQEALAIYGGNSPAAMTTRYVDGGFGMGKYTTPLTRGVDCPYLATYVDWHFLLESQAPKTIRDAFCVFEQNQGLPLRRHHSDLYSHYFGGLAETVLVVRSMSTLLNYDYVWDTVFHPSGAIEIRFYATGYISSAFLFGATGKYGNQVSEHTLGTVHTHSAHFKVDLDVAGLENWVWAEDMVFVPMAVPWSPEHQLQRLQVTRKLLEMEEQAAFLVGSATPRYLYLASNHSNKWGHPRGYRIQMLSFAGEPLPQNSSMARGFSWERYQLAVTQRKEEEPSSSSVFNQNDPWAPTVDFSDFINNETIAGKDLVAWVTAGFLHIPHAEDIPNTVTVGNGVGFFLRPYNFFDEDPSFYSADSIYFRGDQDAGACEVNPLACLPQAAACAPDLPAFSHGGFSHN
Test: cell-based or functional assay

Binder | activity of hAOC3-expressing CHO cells towards [7-14C]benzylamine with 5 µM peptide, percent of the control without peptide [%]
CARLSLSWRGLTLCPSK (disulfide 1-14) [cyclic Siglec-9 peptide (CARLSLSWRGLTLCPSK)] | 127
CAALSLSWRGLTLCPSK (disulfide 1-14) [R3A Siglec-9 peptide (CAALSLSWRGLTLCPSK)] | 139
CAALSLSWAGLTLCPSK (disulfide 1-14) [R3A/R9A Siglec-9 peptide (CAALSLSWAGLTLCPSK)] | 158
CARLSLSWAGLTLCPSK (disulfide 1-14) [R9A Siglec-9 peptide (CARLSLSWAGLTLCPSK)] | 126
